The source of these data is paper PMC12416549 (2024).

The target of the test is T1, TNFR1 (Homo sapiens, UniProt P19438).
T1 chain: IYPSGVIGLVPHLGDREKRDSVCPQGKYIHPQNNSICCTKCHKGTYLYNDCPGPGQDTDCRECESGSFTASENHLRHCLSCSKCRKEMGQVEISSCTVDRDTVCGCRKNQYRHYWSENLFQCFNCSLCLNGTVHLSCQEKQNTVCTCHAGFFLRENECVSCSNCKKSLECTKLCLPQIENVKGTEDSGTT
Description: yeast display SC50.

B1: R66W (designed binder)
chain: SMEEEVEKAAKEYEKKKKEAIEKHLEKLKAKDKEAAERFLKELEEAAKEYAKDEAKTMSEEEAKRWAKKYKEKVLLSELSEEEQKEIKEAEEKLVRTILKYVEEAAK
Turning to B1, the “apparent Kd (screen)” value amounted to 8.56 nM.

B2: K64E (designed binder)
chain: SMEEEVEKAAKEYEKKKKEAIEKHLEKLKAKDKEAAERFLKELEEAAKEYAKDEAKTMSEEEAERRAKKYKEKVLLSELSEEEQKEIKEAEEKLVRTILKYVEEAAK
Regarding B2, the “apparent Kd (screen)” value came out at 0.593 nM.

B3: E44F (designed binder)
chain: SMEEEVEKAAKEYEKKKKEAIEKHLEKLKAKDKEAAERFLKELFEAAKEYAKDEAKTMSEEEAKRRAKKYKEKVLLSELSEEEQKEIKEAEEKLVRTILKYVEEAAK
As to B3, the “apparent Kd (screen)” value amounted to 1.69 nM.

B4: E37I (designed binder)
chain: SMEEEVEKAAKEYEKKKKEAIEKHLEKLKAKDKEAAIRFLKELEEAAKEYAKDEAKTMSEEEAKRRAKKYKEKVLLSELSEEEQKEIKEAEEKLVRTILKYVEEAAK
Regarding B4, the “apparent Kd (screen)” value was 0.956 nM.

B5: K48Q (designed binder)
chain: SMEEEVEKAAKEYEKKKKEAIEKHLEKLKAKDKEAAERFLKELEEAAQEYAKDEAKTMSEEEAKRRAKKYKEKVLLSELSEEEQKEIKEAEEKLVRTILKYVEEAAK
On to B5, for which the “apparent Kd (screen)” value was 0.446 nM.

B6: E4Y (designed binder)
chain: SMEYEVEKAAKEYEKKKKEAIEKHLEKLKAKDKEAAERFLKELEEAAKEYAKDEAKTMSEEEAKRRAKKYKEKVLLSELSEEEQKEIKEAEEKLVRTILKYVEEAAK
As for B6, the “apparent Kd (screen)” value worked out at 1.16 nM.

B7: K56L (designed binder)
chain: SMEEEVEKAAKEYEKKKKEAIEKHLEKLKAKDKEAAERFLKELEEAAKEYAKDEALTMSEEEAKRRAKKYKEKVLLSELSEEEQKEIKEAEEKLVRTILKYVEEAAK
Consider B7, for which the “apparent Kd (screen)” value worked out at 1.05 nM.

B8: E49A (designed binder)
chain: SMEEEVEKAAKEYEKKKKEAIEKHLEKLKAKDKEAAERFLKELEEAAKAYAKDEAKTMSEEEAKRRAKKYKEKVLLSELSEEEQKEIKEAEEKLVRTILKYVEEAAK
With B8, the “apparent Kd (screen)” value was determined as 2.73 nM.

B9: L75E (designed binder)
chain: SMEEEVEKAAKEYEKKKKEAIEKHLEKLKAKDKEAAERFLKELEEAAKEYAKDEAKTMSEEEAKRRAKKYKEKVELSELSEEEQKEIKEAEEKLVRTILKYVEEAAK
For B9, the “apparent Kd (screen)” value amounted to 2.73 nM.

B10: A36L (designed binder)
chain: SMEEEVEKAAKEYEKKKKEAIEKHLEKLKAKDKEALERFLKELEEAAKEYAKDEAKTMSEEEAKRRAKKYKEKVLLSELSEEEQKEIKEAEEKLVRTILKYVEEAAK
Turning to B10, the “apparent Kd (screen)” value is 1.05 nM.

B11: F39E (designed binder)
chain: SMEEEVEKAAKEYEKKKKEAIEKHLEKLKAKDKEAAERELKELEEAAKEYAKDEAKTMSEEEAKRRAKKYKEKVLLSELSEEEQKEIKEAEEKLVRTILKYVEEAAK
Regarding B11, the “apparent Kd (screen)” value turned out to be 4.83 nM.

B12: Y13I (designed binder)
chain: SMEEEVEKAAKEIEKKKKEAIEKHLEKLKAKDKEAAERFLKELEEAAKEYAKDEAKTMSEEEAKRRAKKYKEKVLLSELSEEEQKEIKEAEEKLVRTILKYVEEAAK
Take B12: the “apparent Kd (screen)” value was found to be 11.4 nM.

B13: K11G (designed binder)
chain: SMEEEVEKAAGEYEKKKKEAIEKHLEKLKAKDKEAAERFLKELEEAAKEYAKDEAKTMSEEEAKRRAKKYKEKVLLSELSEEEQKEIKEAEEKLVRTILKYVEEAAK
For B13, the “apparent Kd (screen)” value turned out to be 0.446 nM.

B14: K16F (designed binder)
chain: SMEEEVEKAAKEYEKFKKEAIEKHLEKLKAKDKEAAERFLKELEEAAKEYAKDEAKTMSEEEAKRRAKKYKEKVLLSELSEEEQKEIKEAEEKLVRTILKYVEEAAK
Regarding B14, the “apparent Kd (screen)” value came to 0.446 nM.

B15: E104D (designed binder)
chain: SMEEEVEKAAKEYEKKKKEAIEKHLEKLKAKDKEAAERFLKELEEAAKEYAKDEAKTMSEEEAKRRAKKYKEKVLLSELSEEEQKEIKEAEEKLVRTILKYVEDAAK
Consider B15, for which the “apparent Kd (screen)” value worked out at 0.956 nM.

B16: A55K (designed binder)
chain: SMEEEVEKAAKEYEKKKKEAIEKHLEKLKAKDKEAAERFLKELEEAAKEYAKDEKKTMSEEEAKRRAKKYKEKVLLSELSEEEQKEIKEAEEKLVRTILKYVEEAAK
B16: the “apparent Kd (screen)” value turned out to be 6.43 nM.

B17: L40I (designed binder)
chain: SMEEEVEKAAKEYEKKKKEAIEKHLEKLKAKDKEAAERFIKELEEAAKEYAKDEAKTMSEEEAKRRAKKYKEKVLLSELSEEEQKEIKEAEEKLVRTILKYVEEAAK
With B17, the “apparent Kd (screen)” value was 0.79 nM.

B18: A20C (designed binder)
chain: SMEEEVEKAAKEYEKKKKECIEKHLEKLKAKDKEAAERFLKELEEAAKEYAKDEAKTMSEEEAKRRAKKYKEKVLLSELSEEEQKEIKEAEEKLVRTILKYVEEAAK
Take B18: the “apparent Kd (screen)” value was 0.718 nM.

B19: A67V (designed binder)
chain: SMEEEVEKAAKEYEKKKKEAIEKHLEKLKAKDKEAAERFLKELEEAAKEYAKDEAKTMSEEEAKRRVKKYKEKVLLSELSEEEQKEIKEAEEKLVRTILKYVEEAAK
Consider B19, for which the “apparent Kd (screen)” value is 7.78 nM.

B20: K17V (designed binder)
chain: SMEEEVEKAAKEYEKKVKEAIEKHLEKLKAKDKEAAERFLKELEEAAKEYAKDEAKTMSEEEAKRRAKKYKEKVLLSELSEEEQKEIKEAEEKLVRTILKYVEEAAK
Consider B20, for which the “apparent Kd (screen)” value stood at 0.539 nM.

B21: T97P (designed binder)
chain: SMEEEVEKAAKEYEKKKKEAIEKHLEKLKAKDKEAAERFLKELEEAAKEYAKDEAKTMSEEEAKRRAKKYKEKVLLSELSEEEQKEIKEAEEKLVRPILKYVEEAAK
In the case of B21, the “apparent Kd (screen)” value was determined as 7.07 nM.

B22: K27E (designed binder)
chain: SMEEEVEKAAKEYEKKKKEAIEKHLEELKAKDKEAAERFLKELEEAAKEYAKDEAKTMSEEEAKRRAKKYKEKVLLSELSEEEQKEIKEAEEKLVRTILKYVEEAAK
As for B22, the “apparent Kd (screen)” value was 0.956 nM.

B23: L99M (designed binder)
chain: SMEEEVEKAAKEYEKKKKEAIEKHLEKLKAKDKEAAERFLKELEEAAKEYAKDEAKTMSEEEAKRRAKKYKEKVLLSELSEEEQKEIKEAEEKLVRTIMKYVEEAAK
Take B23: the “apparent Kd (screen)” value worked out at 3 nM.

B24: A67T (designed binder)
chain: SMEEEVEKAAKEYEKKKKEAIEKHLEKLKAKDKEAAERFLKELEEAAKEYAKDEAKTMSEEEAKRRTKKYKEKVLLSELSEEEQKEIKEAEEKLVRTILKYVEEAAK
Take B24: the “apparent Kd (screen)” value came to 20.2 nM.

B25: A55C (designed binder)
chain: SMEEEVEKAAKEYEKKKKEAIEKHLEKLKAKDKEAAERFLKELEEAAKEYAKDECKTMSEEEAKRRAKKYKEKVLLSELSEEEQKEIKEAEEKLVRTILKYVEEAAK
With B25, the “apparent Kd (screen)” value was determined as 11.4 nM.

B26: E92K (designed binder)
chain: SMEEEVEKAAKEYEKKKKEAIEKHLEKLKAKDKEAAERFLKELEEAAKEYAKDEAKTMSEEEAKRRAKKYKEKVLLSELSEEEQKEIKEAEKKLVRTILKYVEEAAK
In the case of B26, the “apparent Kd (screen)” value was determined as 12.5 nM.

B27: K68D (designed binder)
chain: SMEEEVEKAAKEYEKKKKEAIEKHLEKLKAKDKEAAERFLKELEEAAKEYAKDEAKTMSEEEAKRRADKYKEKVLLSELSEEEQKEIKEAEEKLVRTILKYVEEAAK
Turning to B27, the “apparent Kd (screen)” value was 1.27 nM.

B28: E3F (designed binder)
chain: SMFEEVEKAAKEYEKKKKEAIEKHLEKLKAKDKEAAERFLKELEEAAKEYAKDEAKTMSEEEAKRRAKKYKEKVLLSELSEEEQKEIKEAEEKLVRTILKYVEEAAK
For the molecule B28, the “apparent Kd (screen)” value was 20.2 nM.

B29: Q84D (designed binder)
chain: SMEEEVEKAAKEYEKKKKEAIEKHLEKLKAKDKEAAERFLKELEEAAKEYAKDEAKTMSEEEAKRRAKKYKEKVLLSELSEEEDKEIKEAEEKLVRTILKYVEEAAK
B29: the “apparent Kd (screen)” value was 3.63 nM.

B30: L43C (designed binder)
chain: SMEEEVEKAAKEYEKKKKEAIEKHLEKLKAKDKEAAERFLKECEEAAKEYAKDEAKTMSEEEAKRRAKKYKEKVLLSELSEEEQKEIKEAEEKLVRTILKYVEEAAK
B30: the “apparent Kd (screen)” value is 0.49 nM.

B31: M58H (designed binder)
chain: SMEEEVEKAAKEYEKKKKEAIEKHLEKLKAKDKEAAERFLKELEEAAKEYAKDEAKTHSEEEAKRRAKKYKEKVLLSELSEEEQKEIKEAEEKLVRTILKYVEEAAK
Turning to B31, the “apparent Kd (screen)” value is 7.78 nM.

B32: E34Q (designed binder)
chain: SMEEEVEKAAKEYEKKKKEAIEKHLEKLKAKDKQAAERFLKELEEAAKEYAKDEAKTMSEEEAKRRAKKYKEKVLLSELSEEEQKEIKEAEEKLVRTILKYVEEAAK
Consider B32, for which the “apparent Kd (screen)” value stood at 0.446 nM.

B33: E78G (designed binder)
chain: SMEEEVEKAAKEYEKKKKEAIEKHLEKLKAKDKEAAERFLKELEEAAKEYAKDEAKTMSEEEAKRRAKKYKEKVLLSGLSEEEQKEIKEAEEKLVRTILKYVEEAAK
On to B33, for which the “apparent Kd (screen)” value was determined as 3 nM.
